Experimental data as given in patent publication US20240034813A1 (Janssen / Centocor, published 2024).

Experiments:
[1] = target: T1, recombinant cMet/HGFR with c-terminal His-tag, Cy5-labeled (UniProt P08581 25-932, limits assumed, Cy5 label (reacted with Cy5 Mono NHS Ester; sites not stated)); test: competitive TR-FRET (Eu-amivantamab/Cy5-c-MET), EC50 ratio vs Reference Material; Ex. 11 drug product, 3 months at 25 C
T1 construct: Commercial protein; also called Cy5-c-MET; Cy5-labeled c-MET antigen; not shown: C-terminal His-tag
Description: (§1) In this procedure, varying concentrations of unlabeled bispecific EGFR-cMet antibody sample compete with donor fluorophore (Europium (Eu) chelate) labeled bispecific EGFR-cMet antibody for binding to an acceptor fluorophore (Cy5)-labeled c-MET antigen. Excitation of the donor fluorophore results in a transfer of energy to the bound acceptor fluorophore (FRET process). The resultant FRET is detected by emission of light at 665 nm using a microplate reader capable of measuring time-resolved fluorescence. Sample dose response curves are compared to the Reference Material (RM).
(§2) c-MET Binding Materials and Methods. Certified commercial cMet, a recombinant cMet/HGFR with c-terminal His-tag is reacted with certified commercial Cy5 Mono NHS Ester to produce Cy5-labeled c-MET. Validated bispecific EGFR-cMet antibody is reacted with certified commercial Europium (Eu) chelate to produce Eu labeled bispecific EGFR-cMet antibody. […] Fluorescence is then measured by spectrophotometry at 665 nm, plotted against antibody concentration and analyzed by a four-parameter logistic model. The antibody concentration required to obtain half of the maximum fluorescence response (EC50) is determined for RM, assay control and samples. The potencies of assay control and samples are calculated based on the ratio of the sample (or control) and RM EC50 values and reported as a percentage activity relative to the RM.

[2] = target: T1, recombinant cMet/HGFR with c-terminal …; test: competitive TR-FRET (Eu-amivantamab/Cy5-c-MET), EC50 ratio vs Reference Material; Ex. 2 Formulation 3 (acetate), T0, 5 C table
Description: as §1, §2

[3] = target: T2, recombinant human EGFR/ErbB1/HER1 with C-terminal His tag, Cy5-labeled (human, UniProt P00533 25-645, Cy5 label (reacted with Cy5 Mono NHS Ester; sites not stated)); test: competitive TR-FRET (Eu-amivantamab/Cy5-EGFR), EC50 ratio vs Reference Material; Ex. 2 Formulation 3 (acetate), 3 months at 25 C
T2 construct: Commercial protein; also called Cy5-EGFR; Cy5-labeled EGFR antigen; not shown: C-terminal His tag
Description: as §1, with “EGFR” for “c-MET”, “RM.” for “Reference Material (RM).”
as §2, with “EGFR” for “c-MET”, “EGFR,” for “cMet,”, “human EGFR/ErbB1/HER1” for “cMet/HGFR”, “C-terminal His tag” for “c-terminal His-tag”, “EGFR.” for “c-MET.”, “Eu-labeled” for “Eu labeled”

[4] = target: T2, recombinant human EGFR/ErbB1/HER1 with …; test: competitive TR-FRET (Eu-amivantamab/Cy5-EGFR), EC50 ratio vs Reference Material; Ex. 12 drug product with rHuPH20, 9 months at 5 C
Description: as §1, with “EGFR” for “c-MET”, “RM.” for “Reference Material (RM).”
as §2, with “EGFR” for “c-MET”, “EGFR,” for “cMet,”, “human EGFR/ErbB1/HER1” for “cMet/HGFR”, “C-terminal His tag” for “c-terminal His-tag”, “EGFR.” for “c-MET.”, “Eu-labeled” for “Eu labeled”

[5] = target: T2, recombinant human EGFR/ErbB1/HER1 with …; test: competitive TR-FRET (Eu-amivantamab/Cy5-EGFR), EC50 ratio vs Reference Material; Ex. 11 drug product, 3 months at 40 C
Description: as §1, with “EGFR” for “c-MET”, “RM.” for “Reference Material (RM).”
as §2, with “EGFR” for “c-MET”, “EGFR,” for “cMet,”, “human EGFR/ErbB1/HER1” for “cMet/HGFR”, “C-terminal His tag” for “c-terminal His-tag”, “EGFR.” for “c-MET.”, “Eu-labeled” for “Eu labeled”

[6] = target: T1, recombinant cMet/HGFR with c-terminal …; test: competitive TR-FRET (Eu-amivantamab/Cy5-c-MET), EC50 ratio vs Reference Material; Ex. 11 drug product, 12 months at 5 C
Description: as §1, §2

[7] = target: T2, recombinant human EGFR/ErbB1/HER1 with …; test: competitive TR-FRET (Eu-amivantamab/Cy5-EGFR), EC50 ratio vs Reference Material; Ex. 12 drug product with rHuPH20, 6 months at 25 C
Description: as §1, with “EGFR” for “c-MET”, “RM.” for “Reference Material (RM).”
as §2, with “EGFR” for “c-MET”, “EGFR,” for “cMet,”, “human EGFR/ErbB1/HER1” for “cMet/HGFR”, “C-terminal His tag” for “c-terminal His-tag”, “EGFR.” for “c-MET.”, “Eu-labeled” for “Eu labeled”

cMET Binding activity relative to Reference Material (%) [1]: 94%
cMET Binding % activity relative to RM [2]: 94%
EGFR Binding % activity relative to RM [3]: 92%
EGFR Binding activity relative to Reference Material (%) [4]: 87%
EGFR Binding activity relative to Reference Material (%) [5]: 8%
cMET Binding activity relative to Reference Material (%) [6]: 98%
EGFR Binding activity relative to Reference Material (%) [7]: 54%
B1: amivantamab (bispecific antibody, human IgG1, kappa)
heavy 1: not shown
light 1: not shown
heavy 2: not shown
light 2: DIQMTQSPSSVSASVGDRVTITCRASQGISNWLAWFQHKPGKAPKLLIYAASSLLSGVPSRFSGSGSGTDFTLTISSLQPEDFATYYCQQANSFPITFGQGTRLEIKRTVAAPSVFIFPPSDEQLKSGTASVVCLLNNFYPREAKVQWKVDNALQSGNSQESVTEQDSKDSTYSLSSTLTLSKADYEKHKVYACEVTHQGLSSPVTKSFNRGEC
notes: The samples tested were high concentration (160 mg/mL) formulations, fresh or stored or stressed; also called JNJ-61186372; bispecific EGFR-cMet antibody
